Source: patent US20230285523A1, “USE OF ELAFIN IN THE TREATMENT OF COVID-19” (priority 2021, published 2023)
No end group written: not given here.

Key:
[1] = One phase I and two phase II randomized double-blind placebo-controlled clinical trials in a surgery program; type: in vivo
Excerpt: The clinical trials in the surgery development program established an intravenous single dosing scheme with perioperative administration via infusion.

[2] = Two clinical Phase II studies, intravenous doses; type: in vivo; conditions: intravenous doses of 200 mg
[3] = tested on: MCP-1 (macrophage chemoattractant protein-1; CCL2); conditions: U937 cells, LPS; cited from earlier work
20 S proteasome = conditions: cited from earlier work
[4] = after heart transplantation, myocardial infarction, skeletal muscle ischemia; cited from earlier work
[5] = tested on: transcription factors AP-1 and NF-κB; conditions: U937 cells; cited from earlier work
[6] = in vivo; cited from earlier work
[7] = Phase I clinical study, single intravenous doses; type: in vivo; conditions: single intravenous doses of 20 to 400 mg
[8] = rats, cited from earlier work
[9] = after esophageal cancer surgery

## Tiprelestat: INN name of elafin; recombinant human protein of 57 amino acids, about 6 kDa, inhibitor of elastase and proteinase 3 (AQEPVKGPVSTKPGSCPIILIRCAMLNPPNRCLKDTDCPGIKKCCEGSCGMACFVPQ; listed as Homo sapiens)
[1]; [9]
  kidney, liver and heart organ damages: trend towards lower
  organ protective effect (length of ICU stay): organ protective effect was confirmed
[1]; one phase I and two phase II trials, surgery program
  tolerability of intravenous application: well tolerated
[1]; surgery program clinical trials
  safety concerns: No major safety concerns were observed
[2]
  tolerability: well tolerated
[3]
  production of MCP-1: inhibition of the production
20 S proteasome
  inhibition of peptidase activities associated with the 20 S proteasome: no inhibition
[4]
  reperfusion injury: suppresses reperfusion injury
[5]
  LPS-induced activation of AP-1 and NF-κB: inhibited
[6]
  ventilator induced injury: able to reduce
[7]
  tolerability: well tolerated

## 99mTc-elafin: 99mTc-labeled elafin used for SPECT pharmacokinetics in rats (AQEPVKGPVSTKPGSCPIILIRCAMLNPPNRCLKDTDCPGIKKCCEGSCGMACFVPQ; ends and bridges not checked; also: 99mTc label; UniProt P19957 61-117, looked up)
[8]; 24 h p.i.
  accumulation in other organs, including the brain: no accumulation
  radioactivity in the dissected kidney: 4.98±1.24 %ID/g
[8]; bolus intravenous injection, blood
  terminal elimination half-life in blood: 3.33 h
[8]; kidney, 5 min post injection, SPECT
  maximum accumulation in the kidney: 8.5%±0.1%
[8]; kidney, 24 h p.i.
  share of detected radioactivity in the kidney identified as not metabolized: 30%
